Experiments:
native human ApoC3 [1] = target: T1, native human ApoC3 (human, UniProt P02656 21-99); experiment: SPR, ApoC3 over captured IgG1
T1 construct: also called nhuApoC3; native huApoC3
Protocol: (§1) An inverted SPR assay was designed in which a test antibody was captured on an SPR chip, human ApoC3 protein was injected, and binding of ApoC3 to the antibody was measured. […] The immobilization was performed in accordance with the method provided by Biacore/GE using the NHS/EDC kit (Biacore AB, Cat.nr. BR-1000-50): after activation of the chip, a solution of 30 μg/ml of anti-human Fcγ antibody in 10 mM acetate buffer with pH of 5.0 was prepared and injected until the surface density reached approximately 10000 RU. The analytical cycle comprised the following steps:
(§2) The resulting sensorgrams were analyzed using the BIAevaluation 4.1 software using Langmuir 1:1 binding model to derive binding kinetics. Data was zero adjusted, the reference cell sensorgrams were subtracted and the no analyte blank assay was used for double referencing the sensorgrams corresponding to the analyte injections. The dissociation and association phase sensorgrams were fitted separately for the 4 different concentration curves. Sensorgrams were excluded from the fitting if maximum RU values reached were below the detection limit of the equipment (<5 RU), Biacore 3000 (Biacore AB).

native human ApoC3 [2] = target: T1, native human ApoC3; experiment: SPR, ApoC3 over captured IgG1, pH 5.5
Protocol: as §1, §2

native human ApoC3 [3] = target: T1, native human ApoC3; experiment: SPR, ApoC3 over captured IgG1, pH 7.4
Protocol: as §1, §2

[4] = target: T2, biotinylated native human ApoC3 (human, UniProt P02656 21-99, biotinylated (site not stated)); experiment: SPR, IgG1 over biotinylated ApoC3 on SA chip
T2 construct: also called biotinylated human ApoC3
Protocol: (§3) Biotinylated native human ApoC3 was captured on a streptavidin coated SPR chip (GE Healthcare, cat. nr. BR100032) at pH 7.4, in accordance with the method provided by Biacore, by injection of 20 μl 10 μg/ml biotinylated native human ApoC3 reaching the surface density of approximately 500 RU. 60 μL of test antibody in 1-50 nM range diluted in HBS-EP buffer (GE, cat # BR-1008-26; 0.010 M HEPES, 0.150M NaCl, 3 mM EDTA, 0.05% (v/v) surfactant P20, pH 7.4) was injected and passed through the flow cells at a flow rate of 30 μl/min, followed by an off-rate wash at pH7.4 for 5 min. After the dissociation, the flow cell surfaces were regenerated by injecting 10 μl of 10 mM NaOH/1 M NaCl and 10 μl of 10 mM glycine at pH1.5. The assay was repeated at pH5.5 using the same general protocol, where the running and sample dilution buffer was replaced by a HBS-EP buffer supplemented with citrate buffer to 10 mM final concentration and pH adjusted to 5.5.
(§4) The resulting sensorgrams were analyzed using the BIAevaluation 4.1 software using Langmuir 1:1 binding model to derive binding kinetics. Data was zero adjusted and the reference cell sensorgrams were subtracted. Sensorgrams were double referenced to no-analyte blank assay. Fitted parameters were considered not applicable if off-rate values were below the equipment's detection limit of kd: 1×10⁻⁶ 1/s.

[5] = target: T2, biotinylated native human ApoC3; experiment: SPR, IgG1 over biotinylated ApoC3 on SA chip, pH 5.5
Protocol: as §3, §4

[6] = target: T2, biotinylated native human ApoC3; experiment: SPR, IgG1 over biotinylated ApoC3 on SA chip, pH 7.4
Protocol: as §3, §4

T1 sequence (P02656 21-99): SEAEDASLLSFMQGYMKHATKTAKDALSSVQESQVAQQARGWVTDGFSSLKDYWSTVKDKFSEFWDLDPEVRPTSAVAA
T2 sequence (P02656 21-99): as above

| Binder | KD (nM) pH5.5/pH7.4 (native human ApoC3 [1]) | Ka (native human ApoC3 [2]) | koff (native human ApoC3 [2]) | kon (native human ApoC3 [2]) | Ka (native human ApoC3 [3]) | koff (native human ApoC3 [3]) | kon (native human ApoC3 [3]) | KD pH5.5/KD pH7.4 [4] | Ka [5] | koff [5] | kon [5] | Ka [6] | Kd [6] | koff [6] | kon [6] | Kd [5] | Kd (native human ApoC3 [3]) |
| --- | --- | --- | --- | --- | --- | --- | --- | --- | --- | --- | --- | --- | --- | --- | --- | --- | --- |
| mAb10 (antibody, IgG1, V domains shown, Produced as full length IgG1 (kappa) in ExpiCHO-S cells; also called humanized anti-ApoC3 antibody mAb10) VH: QLVESGGGLVQPGGSLRLSCAASGFTFSTYSMRWVRQVPGKGLEWVSSIHTEGGGTAYRDSVKGRFTISRDNAKNTLYLQMNNLRAEDTAVYYCVIAGYSDWGQGTLVTVSS VL: DIVMTQSPLSLSVVPGEPASISCKTSQGLVHSDGKTYFYWFLQKPGQSPQQLIYQVSNRASGVPDRFSGSGSGTDFTLKISRVEAEDVGVYYCAHGTYYPHTFGQGTRLEIK | 1.77 | 2.99e+06 M⁻¹ | 0.0274 s⁻¹ | 82100 M⁻¹ s⁻¹ | 5.3e+06 M⁻¹ | 0.00601 s⁻¹ | 31900 M⁻¹ s⁻¹ | 2.82 | 3.7e+09 M⁻¹ | 0.000113 s⁻¹ | 417000 M⁻¹ s⁻¹ | 1.05e+10 M⁻¹ | 0.1 nM | 2.12e-05 s⁻¹ | 221000 M⁻¹ s⁻¹ | – | – |
| mAb11 (antibody, IgG1, V domains shown, Produced as full length IgG1 (kappa) in ExpiCHO-S cells; also called humanized anti-ApoC3 antibody mAb11) VH: QLVESGGGLVQPGGSLRLSCAASGFTFSTYSMRWVRQVPGKGLEWVSSIHTEGGGTAYRDSVKGRFTISRDNAKNTLYLQMNNLRAEDTAVYYCVIAGYSDWGQGTLVTVSS VL: DIVMTQSPLSLSVTPGEPASISCKTSQGLVHSDGKTYFYWFLQKPGQSPQQLIYQVSNRASGVPDRFSGSGSGTDFTLKISRVEAEDVGVYYCAHGTYYPHTFGQGTRLEIK | 3.9 | 1.99e+06 M⁻¹ | 0.0405 s⁻¹ | 80500 M⁻¹ s⁻¹ | 7.73e+06 M⁻¹ | 0.00523 s⁻¹ | 40400 M⁻¹ s⁻¹ | 1.91 | 3.02e+09 M⁻¹ | 0.000147 s⁻¹ | 445000 M⁻¹ s⁻¹ | 5.77e+09 M⁻¹ | 0.17 nM | 3.8e-05 s⁻¹ | 219000 M⁻¹ s⁻¹ | 0.33 nM | – |
| mAb12 (antibody, IgG1, V domains shown, Produced as full length IgG1 (kappa) in ExpiCHO-S cells; also called humanized anti-ApoC3 antibody mAb12) VH: QLVESGGGLVQPGGSLRLSCAASGFTFSTYSMRWVRQVPGKGLEWVSSIHTDAGGTAYRDSVKGRFTISRDNAKNTLYLQMNSLRPEDTAIYYCVIAGYSDWGQGTLVTVSS VL: DIVMTQSPLSLSVTPGEPASISCKTSQGLVHSDGKTYFYWFLQKPGQSPQQLIYQVSNRASGVPDRFTGSGSGTDFTLKISRVKAEDVGVYYCAHGTYYPHTFGQGTRLEIK | 1.07 | 2.91e+06 M⁻¹ | 0.0251 s⁻¹ | 73200 M⁻¹ s⁻¹ | 3.12e+06 M⁻¹ | 0.00655 s⁻¹ | 20400 M⁻¹ s⁻¹ | 2.12 | 7.18e+09 M⁻¹ | 6.73e-05 s⁻¹ | 483000 M⁻¹ s⁻¹ | 1.53e+10 M⁻¹ | 0.07 nM | 1.49e-05 s⁻¹ | 228000 M⁻¹ s⁻¹ | 0.14 nM | – |
| mAb17 (antibody, IgG1, V domains shown, Produced as full length IgG1 (kappa) in ExpiCHO-S cells; also called humanized anti-ApoC3 antibody mAb17) VH: QLVESGGGLVQPGGSLRLSCAASGFTFSTYSMRWVRQAPGKGLEWVSSIHTEAGGTAYRDSVKGRFTISRDNAKNTLYLQMNNLRAEDTAVYYCVIAGYSDWGQGTLVTVSS VL: DIVMTQSPLSLPVTPGEPASISCKTSQGLVHSGGKTYFYWFLQKPGQSPQQLIYQVSNRASGVPDRFTGSGSGTDFTLKISRVEAEDAGVYYCAQGTYYPHTFGQGTRLEIK | 4.12 | 3.89e+06 M⁻¹ | 0.0217 s⁻¹ | 84500 M⁻¹ s⁻¹ | 1.6e+07 M⁻¹ | 0.00616 s⁻¹ | 98700 M⁻¹ s⁻¹ | 7.37 | 2.92e+09 M⁻¹ | 0.000276 s⁻¹ | 806000 M⁻¹ s⁻¹ | 2.15e+10 M⁻¹ | 0.05 nM | 2.33e-05 s⁻¹ | 503000 M⁻¹ s⁻¹ | 0.34 nM | 62 nM |
| mAb19 (antibody, IgG1, V domains shown, Produced as full length IgG1 (kappa) in ExpiCHO-S cells; also called humanized anti-ApoC3 antibody mAb19) VH: QLVESGGGLVQPGGSLRLSCAASGFTFSTYSMRWVRQAPGKGLEWVSSIHTDAGGTAYRDSVKGRFTISRDNAKNTLYLQMNNLRPEDTAVYYCVIAGYSDWGQGTLVTVSS VL: DIVMTQSPGSLSVTPGEPASISCKTSQGLVHSGGKTYFYWFLQKPGQSPQQLIYQVSNRASGVPDRFTGSGSGTDFTLKISGVEAEDAGVYYCAQGTYYPHTFGQGTRLEIK | 4.42 | 6.37e+06 M⁻¹ | 0.0198 s⁻¹ | 127000 M⁻¹ s⁻¹ | 2.82e+07 M⁻¹ | 0.00463 s⁻¹ | 130000 M⁻¹ s⁻¹ | 9.21 | 2.4e+09 M⁻¹ | 0.000296 s⁻¹ | 710000 M⁻¹ s⁻¹ | 2.21e+10 M⁻¹ | 0.05 nM | 2.9e-05 s⁻¹ | 640000 M⁻¹ s⁻¹ | 0.42 nM | 36 nM |

From patent US20200239555A1 (STATEN BIOTECHNOLOGY B V, published 2020)
